Reference: patent US6362319B1, “Glial cell line-derived neurotrophic factor” (Amgen Inc., priority 1991, dated 2002)

Tested on: parasympathetic nerve cells from chick embryo ciliary ganglia
Assay: Neuronal survival assay (MTT), ciliary ganglia
Type: cell-based
Experimental: Cultures of primary check embryo ciliary ganglia and sympathetic chain ganglia were prepared as previously described (Collins 1978 Develop. Biol. 65:50; Manthorpe et al. 1986 Develop. Brain Res. 25:191). Briefly, ciliary or sympathetic ganglia were removed from fertile, pathogen free chicken eggs that had been incubated for 8 and 10 days, respectively, at 38° C. in a humidified atmosphere. […]
Ten μl of a serial dilution of the sample to be assayed for neurotrophic activity was added to each well and the dishes were incubated for 20 hours at 37° C. in a humidified atmosphere containing 7.5% CO2. […] The absorbance of 570 nm was determined relative to a 690 nm reference for each well using an automatic microtiter plate reader (Dynatech, Chantilly, Va.). The absorbance of wells which had not received any neurotrophic agent (negative controls) was substracted from the absorbance of sample-containing wells. The resulting absorbance is proportional to the number of living cells in each well, defined as those nerve cells capable of reducing the dye. […] Specific activity was determined by dividing the number of trophic units by the amount of protein present in the sample.

B1: glial cell line-derived neurotrophic factor (protein)
chain: SNMPEDYPDQFDDVMDFIQATIKRLKRSPDKQMAVLPRRERNRQAAAANPENSRGKGRRGQRGKNRGCVLTAIHLNVTDLGLGYETKEELIFRYCSGSCDAAETTYDKILKNLSRNRRLVTDKVGQACCRPIAF
notes: dopaminergic neurotrophic protein purified from serum-free conditioned medium of rat B49 glioblastoma cells; disulfide-bonded dimer
  survival of parasympathetic nerve cells: promotes the survival in culture of parasympathetic nerve cells
